B1: C3 (antibody, human IgG1, kappa, L234A L235A, V domains shown)
VH: QVQLVQSGAEVKKPGDSVKVSCKASGYTFTTYWMHWVRQAPGQGLEWMGAIYPGLSDTTYSQKFKGKVTMTRDTSTSTVYMKLSSLRSEDTAVYYCARLLDYAMDYWGQGTLVTVSS
VL: DIQMTQSPSSLSASVGDRVTITCRASQDIRSYLNWHQQKPGKAPKLLIWYTSRLHSGVPSRFSGSGSGTDYTLTISSLQPEDFATYFCQQGETLPWTFGQGTKLEIKR
notes: Humanized monoclonal antibody; also called anti-CD73 antibody C3
B2: C4 (antibody, human IgG1, kappa, L234A L235A, V domains shown)
VH: QVQLVQSGAEVKKPGDSVKVSCKASGYTFTTYWMHWVRQAPGQGLEWMGAIYPGLSDTTYNQKFKGKVTMTRDTSTSTVYMKLSSLRSEDTAVYYCARLLDYAMDYWGQGTLVTVSS
VL: DIQMTQSPSSLSASVGDRVTITCRASQDIRSYLNWHQQKPGKAPKLLIWYTSRLHSGVPSRFSGSGSGTDYTLTISSLQPEDFATYFCQQGETLPWTFGQGTKLEIKR
notes: Humanized monoclonal antibody; also called C04; inventive anti-CD73 antibody C4
B3: C5 (antibody, human IgG1, kappa, L234A L235A, V domains shown)
VH: QVQLVQSGAEVKKPGDSVKVSCKASGYTFTTYWMHWVRQAPGQGLEWMGAIYPGNSDTTYNQKFKGKVTMTRDTSTSTVYMKLSSLRSEDTAVYYCARLLDYAMDYWGQGTLVTVSS
VL: DIQMTQSPSSLSASVGDRVTITCRASQDIRSYLNWHQQKPGKAPKLLIWYTSRLHSGVPSRFSGSGSGTDYTLTISSLEPEDFATYFCQQGETLPWTFGQGTKLEIKR
notes: Humanized monoclonal antibody; also called anti-CD73 antibody C5
B4: C6 (antibody, human IgG1, kappa, L234A L235A, V domains shown)
VH: QVQLVQSGAEVKKPGDSVKVSCKASGYTFTTYWMHWVRQAPGQGLEWMGAIYPGNSDTTYNQKFKGKVTMTRDTSTSTVYMKLSSLRSEDTAVYYCARLLDYAMDYWGQGTLVTVSS
VL: DIQMTQSPSSLSASVGDRVTITCRASQDIRNYLNWHQQKPGKAPKLLIWYTSRLHSGVPSRFSGSGSGTDYTLTISSLQPEDFATYFCQQGNTLPWTFGQGTKLEIKR
notes: Humanized monoclonal antibody; also called anti-CD73 antibody C6

Columns and labels:
[1] = biological target: T1, cell-bound CD73 (human, UniProt P21589 27-549); assay: cell-based or functional assay
T1 sequence (looked up): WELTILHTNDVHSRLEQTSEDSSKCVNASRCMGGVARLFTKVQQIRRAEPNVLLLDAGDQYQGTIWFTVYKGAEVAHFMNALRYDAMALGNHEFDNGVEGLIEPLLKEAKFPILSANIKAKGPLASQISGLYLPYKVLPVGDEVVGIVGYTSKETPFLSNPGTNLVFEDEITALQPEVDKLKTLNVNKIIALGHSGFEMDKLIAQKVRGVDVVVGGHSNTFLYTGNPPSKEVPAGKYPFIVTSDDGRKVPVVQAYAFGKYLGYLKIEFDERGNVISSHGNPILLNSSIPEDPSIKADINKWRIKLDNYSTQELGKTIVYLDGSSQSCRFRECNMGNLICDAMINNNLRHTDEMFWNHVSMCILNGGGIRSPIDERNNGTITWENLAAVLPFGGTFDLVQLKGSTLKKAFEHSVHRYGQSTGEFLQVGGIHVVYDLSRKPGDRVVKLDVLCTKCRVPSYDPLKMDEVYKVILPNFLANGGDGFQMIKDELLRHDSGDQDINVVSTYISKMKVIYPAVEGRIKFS

[2] = biological target: T2, non-cell-bound CD73 (human, UniProt P21589 27-549, limits assumed); assay: cell-based or functional assay
T2 sequence (looked up): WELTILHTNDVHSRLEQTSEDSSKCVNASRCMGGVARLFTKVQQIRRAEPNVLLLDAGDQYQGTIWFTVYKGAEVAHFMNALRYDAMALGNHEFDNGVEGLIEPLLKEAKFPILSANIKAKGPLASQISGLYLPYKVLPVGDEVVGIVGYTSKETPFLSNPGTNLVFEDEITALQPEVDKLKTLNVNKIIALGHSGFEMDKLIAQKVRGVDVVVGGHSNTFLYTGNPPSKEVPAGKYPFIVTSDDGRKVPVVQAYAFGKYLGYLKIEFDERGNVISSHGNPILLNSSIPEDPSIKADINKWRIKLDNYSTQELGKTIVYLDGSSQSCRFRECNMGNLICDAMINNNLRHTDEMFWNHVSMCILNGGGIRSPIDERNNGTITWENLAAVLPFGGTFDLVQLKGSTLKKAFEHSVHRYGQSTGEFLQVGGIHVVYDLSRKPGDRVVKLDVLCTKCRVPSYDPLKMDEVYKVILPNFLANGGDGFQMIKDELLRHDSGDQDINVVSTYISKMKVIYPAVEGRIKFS

[3] = biological target: T1, cell-bound CD73; assay: cell-based or functional assay; remark: listed apart in the source
[4] = biological target: T3, recombinant human CD73 protein (human, UniProt P21589 27-549, limits assumed); assay: cell-based or functional assay
T3 sequence (looked up): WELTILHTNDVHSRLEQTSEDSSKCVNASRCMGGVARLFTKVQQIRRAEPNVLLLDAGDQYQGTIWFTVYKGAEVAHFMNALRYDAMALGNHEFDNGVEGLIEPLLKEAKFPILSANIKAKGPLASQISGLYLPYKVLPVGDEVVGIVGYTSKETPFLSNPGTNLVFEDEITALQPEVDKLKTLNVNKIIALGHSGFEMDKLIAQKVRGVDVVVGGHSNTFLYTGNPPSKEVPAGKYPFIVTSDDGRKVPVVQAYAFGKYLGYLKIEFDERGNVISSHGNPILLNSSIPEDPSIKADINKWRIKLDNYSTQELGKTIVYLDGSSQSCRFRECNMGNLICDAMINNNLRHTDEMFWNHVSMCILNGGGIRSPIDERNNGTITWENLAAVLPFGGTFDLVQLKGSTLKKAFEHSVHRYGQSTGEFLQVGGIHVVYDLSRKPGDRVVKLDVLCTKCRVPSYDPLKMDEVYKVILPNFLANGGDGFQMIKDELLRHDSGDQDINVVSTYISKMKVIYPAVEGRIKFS

[5] = biological target: T4, human CD73-His (human, UniProt P21589 27-549); assay: SPR (ProteOn XPR36), antibody captured on Protein A/G, dimeric human CD73-His as analyte, avidity format, 1:1 Langmuir fit
T4 construct: extracellular domain; The SPR analyte is only called 'human CD73-His' (non-covalent dimeric antigen); also called HuCD73 His tagged; HuCD73his20170303
T4 sequence: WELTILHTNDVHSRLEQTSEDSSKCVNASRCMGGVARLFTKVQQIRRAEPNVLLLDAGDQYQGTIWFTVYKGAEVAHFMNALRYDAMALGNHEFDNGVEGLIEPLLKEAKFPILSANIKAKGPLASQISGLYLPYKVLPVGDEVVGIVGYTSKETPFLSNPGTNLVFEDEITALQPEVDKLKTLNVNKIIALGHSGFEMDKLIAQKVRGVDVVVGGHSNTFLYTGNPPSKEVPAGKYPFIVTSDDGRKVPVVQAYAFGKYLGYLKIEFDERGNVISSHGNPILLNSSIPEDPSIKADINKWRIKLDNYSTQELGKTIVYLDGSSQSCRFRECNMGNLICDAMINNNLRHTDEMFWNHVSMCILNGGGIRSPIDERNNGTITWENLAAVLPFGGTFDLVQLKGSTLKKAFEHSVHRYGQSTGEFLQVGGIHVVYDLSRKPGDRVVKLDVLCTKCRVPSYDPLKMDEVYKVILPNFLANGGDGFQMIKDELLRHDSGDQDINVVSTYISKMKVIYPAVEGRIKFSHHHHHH
Experimental: For the avidity format, the experiment was performed on a Bio-Rad ProteOn XPR36 instrument. Antibodies were captured via Protein A/G and the non-covalent dimeric antigens were flowed over the captured surface. The running buffer for this experiment and all dilutions were prepared in PBS-T-EDTA. The GLM sensor chip was normalized and pre-conditioned as per the manufacturer's recommendations. The sensor chip was activated with an equal mixture of EDC/s-NHS in the horizontal direction for 300 s at a flow rate of 30 μL/min and immobilized with recombinant Protein A/G (50 μg/ml in 10 mM acetate pH 4.5) in the horizontal direction for 300 s at a flow rate of 30 μL/min resulting in about 5000 RU of Protein A/G on the surface. The sensor chip was deactivated with 1M ethanolamine-HCl in the horizontal direction for 300 s at a flow rate of 30 μL/min. The sensor chip was regenerated with 18 s of 0.85% phosphoric acid at a flow rate of 100 μL/min 2 times horizontally and 2 times vertically.
About 300 RU of antibody was captured on the Protein A/G surface vertically for 60 s at a flow rate of 30 μL/min. The capture surface was stabilized by injecting PBS-T-EDTA for 60 s at a flowrate of 100 μL/min horizontally. The analyte (human CD73-His) was injected horizontally over the captured antibody for 600 s at a flow rate of 30 μL/min with a dissociation of 1200 s. The concentrations of human CD73-His were 0 nM, 3.125 nM, 6.25 nM, 12.5 nM, 25 nM and 50 nM. The surface was regenerated by injecting 0.85% phosphoric acid for 18 s at a flow rate of 100 μL/min one time horizontally and one time vertically.
The interspot (interactions with sensor surface) and blank (PBS-T-EDTA or 0 nM analyte) were subtracted from the raw data.

[6] = biological target: T5, mouse CD73 (mouse, UniProt Q61503 29-551, limits assumed); assay: SPR, mouse CD73 compared with human CD73 (reference)
T5 construct: also called murine CD73
T5 sequence (looked up): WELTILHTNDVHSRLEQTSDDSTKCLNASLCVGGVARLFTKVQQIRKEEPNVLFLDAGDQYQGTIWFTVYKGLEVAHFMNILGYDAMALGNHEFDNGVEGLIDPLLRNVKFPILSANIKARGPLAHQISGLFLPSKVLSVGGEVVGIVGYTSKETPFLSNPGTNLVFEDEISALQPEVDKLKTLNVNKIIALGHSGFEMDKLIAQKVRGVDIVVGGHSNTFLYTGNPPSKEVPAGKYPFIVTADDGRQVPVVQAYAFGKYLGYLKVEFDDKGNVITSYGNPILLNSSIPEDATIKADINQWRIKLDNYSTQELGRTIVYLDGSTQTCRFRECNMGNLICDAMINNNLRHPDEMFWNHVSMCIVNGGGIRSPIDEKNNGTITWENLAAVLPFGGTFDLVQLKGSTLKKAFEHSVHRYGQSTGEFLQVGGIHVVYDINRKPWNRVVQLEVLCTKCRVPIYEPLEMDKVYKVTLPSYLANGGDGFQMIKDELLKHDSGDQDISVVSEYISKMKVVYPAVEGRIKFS

[7] = biological target: T1, cell-bound CD73; assay: cell-based or functional assay; remark: listed apart in the source
[8] = biological target: T1, cell-bound CD73; assay: cell-based or functional assay; remark: listed apart in the source
[9] = biological target: T1, cell-bound CD73; assay: cell-based or functional assay; remark: listed apart in the source

| Binder | % of max. adenosine inhibition, washed Colo-201 cells [1] | % of max. adenosine inhibition, Colo-201 culture supernatant [2] | Max. adenosine inhibition [%] in Colo201 cells [3] | IC90 of inhibition of CD73 enzymatic function (luciferase-based assay) [4] | Kd [5] | fold higher binding to human CD73 than to mouse CD73 [6] | CD8 T cell proliferation [% of control], Donor A, 1 nM antibody [7] | CD8 T cell proliferation [% of control], Donor B, 1 nM antibody [7] | CD8 T cell proliferation [% of control], Donor C, 1 nM antibody [7] | CD8 T cell proliferation [% of control], Donor D, 1 nM antibody [7] | CD8 T cell proliferation [% of control], Donor E, 1 nM antibody [7] | CD8 T cell proliferation [% of control], Donor F, 1 nM antibody [7] | CD73 surface reduction [%] on Colo201 cells, 24 h, flow cytometry [8] | IFNγ release [fold change over control], Donor A, 1 nM antibody [9] | IFNγ release [fold change over control], Donor B, 1 nM antibody [9] | IFNγ release [fold change over control], Donor C, 1 nM antibody [9] | IFNγ release [fold change over control], Donor D, 1 nM antibody [9] | IFNγ release [fold change over control], Donor E, 1 nM antibody [9] | IFNγ release [fold change over control], Donor F, 1 nM antibody [9] |
| --- | --- | --- | --- | --- | --- | --- | --- | --- | --- | --- | --- | --- | --- | --- | --- | --- | --- | --- | --- |
| B1 | 81% | 82% | 88% | 320 pM | 72 pM | 117 fold | 103% | 80.2% | 116% | 99.3% | 101% | 91.3% | 16% | 19.9 fold | 7.7 fold | 31.9 fold | 19 fold | 14.2 fold | 6.7 fold |
| B2 | 82% | 81% | 88% | 240 pM | 74 pM | 120 fold | 104% | 70.3% | 111% | 98.5% | 100% | 92.6% | 15% | 20.2 fold | 8.7 fold | 35.2 fold | 13.7 fold | 14.1 fold | 7.1 fold |
| B3 | 82% | 80% | 87% | 290 pM | 49 pM | 163 fold | 103% | 80.3% | 101% | 99.3% | 100% | 86% | 19% | 24.5 fold | 11.3 fold | 59.3 fold | 22.9 fold | 12.4 fold | 5.8 fold |
| B4 | 81% | 78% | 88% | 240 pM | 96 pM | 58 fold | 102% | 65.4% | 88.3% | 99.6% | 100% | 91.1% | 19% | 24.3 fold | 12.9 fold | 55.5 fold | 25.8 fold | 14 fold | 10.3 fold |

Reference: US20190352420A1 (Boehringer Ingelheim, published 2019)
